How the values were obtained:
[1] = molecular target: ICAM-1 on tumor cells (HeLa, 8505C) (human) (UniProt P05362); assay: cell-based or functional assay
[2] = molecular target: ICAM-1 on tumor cells (HeLa, 8505C) (human) (UniProt P05362); assay: flow cytometry, 8505C cells, R6.5 antibody at 10 µg/ml; ICAM-1 negative 293T control reads 0%
[3] = molecular target: ICAM-1 on tumor cells (HeLa, 8505C) (human) (UniProt P05362); assay: flow cytometry, HeLa cells, R6.5 antibody at 10 µg/ml; ICAM-1 negative 293T control reads 0%
[4] = molecular target: ICAM-1 on tumor cells (HeLa, 8505C) (human) (UniProt P05362); assay: estimated from titrated R65 antibody binding to HeLa cells

ICAM-1 on tumor cells (HeLa, 8505C) (human), sequence (P05362 28-532): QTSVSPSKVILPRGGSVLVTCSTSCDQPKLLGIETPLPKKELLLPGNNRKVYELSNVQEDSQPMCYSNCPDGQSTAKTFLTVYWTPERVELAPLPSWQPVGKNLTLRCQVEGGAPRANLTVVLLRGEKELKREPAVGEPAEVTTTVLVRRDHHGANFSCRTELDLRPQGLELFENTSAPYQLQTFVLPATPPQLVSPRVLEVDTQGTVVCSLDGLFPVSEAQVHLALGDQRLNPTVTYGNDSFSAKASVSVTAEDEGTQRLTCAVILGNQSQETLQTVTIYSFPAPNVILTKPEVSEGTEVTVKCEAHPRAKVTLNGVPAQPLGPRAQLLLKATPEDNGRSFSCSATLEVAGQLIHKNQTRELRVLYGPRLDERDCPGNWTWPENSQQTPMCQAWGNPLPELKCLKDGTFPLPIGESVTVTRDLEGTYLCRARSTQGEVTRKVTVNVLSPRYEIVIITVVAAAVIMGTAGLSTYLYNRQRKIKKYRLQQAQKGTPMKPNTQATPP

Molecule “R6.5-CAR (third generation anti-ICAM-1 chimeric antigen receptor on primary human T cells) (from UniProt P10747 153-220; Q07011 214-255; P20963 52-164) (scFv)” has a percent of 8505C cells viable after 24 hours with CAR T cells, E:T 2.5:1 (bioluminescence, normalized to non-transduced T cells) [1] of 52% and a percent of HeLa cells viable after 24 hours with CAR T cells, E:T 2.5:1 (bioluminescence, normalized to non-transduced T cells) [1] of 17%.

B1: murine monoclonal anti-human ICAM-1 antibody R6.5 (antibody, from another filing, V domains shown)
VH: QVQLQQSGPELVRPGVSVKISCKGSGYTFIDYAIHWVKESHAKSLEWIGVISAYSGDTNYNQKFKGKATMTVDKSSNTAYLELARLTSEDSAIYYCARGGWLLLSFDYWGQGTTLTVSS
VL: DVVMTQSPLSLPVSLGDQASISCRSSQSLVHSNGNNYLHWYLQKSGQAPKLLIYKVSNRFSGVPDRFSGSGSGTDFTLKISRVEAEDLGVYFCSQSTHVPLTFGGGTKLEIKR
B1 gave a % ICAM-1 positive cells [2] of 97%, a % ICAM-1 positive cells [3] of 100% and a Kd [4] of 10 nM.

Source: patent US20200181238A1
